This is an account of results in patent publication US11007356B2, “Ingestible device for delivery of therapeutic agent to the gastrointestinal tract” (Progenity, Inc., priority 2018, dated 2021).

The conditions of series [1]: in vivo, sc; cited from earlier work.
Series [2] can be described thus: Dosing regimen model: required bioavailability for ingestible device (Tables 16, 17). The conditions noted are these: for Eff Dose: approved dose x bioavailability of the approved route (Table 16).

B1: evolocumab (antibody, chains of the INN, looked up, V domains shown)
VH: EVQLVQSGAEVKKPGASVKVSCKASGYTLTSYGISWVRQAPGQGLEWMGWVSFYNGNTNYAQKLQGRGTMTTDPSTSTAYMELRSLRSDDTAVYYCARGYGMDVWGQGTTVTVSS
VL: ESALTQPASVSGSPGQSITISCTGTSSDVGGYNSVSWYQQHPGKAPKLMIYEVSNRPSGVSNRFSGSKSGNTASLTISGLQAEDEADYYCNSYTSTSMVFGGGTKLTVL
For B1, the “Bio Avail (Approved Dosing Info)” value in series [1] is listed as 82%. Moreover, the “Eff Dose” value in series [2] worked out at 114.8 mg.

B2: emicizumab (antibody, chains of the INN, looked up, V domains shown)
VH: QVQLVQSGSELKKPGASVKVSCKASGYTFTDNNMDWVRQAPGQGLEWMGDINTRSGGSIYNEEFQDRVIMTVDKSTDTAYMELSSLRSEDTATYHCARRKSYGYYLDEWGEGTLVTVSS
VL: DIQMTQSPSSLSASVGDRVTITCKASRNIERQLAWYQQKPGQAPELLIYQASRKESGVPDRFSGSRYGTDFTLTISSLQPEDIATYYCQQYSDPPLTFGGGTKVEIK
VH2: QVQLVESGGGLVQPGGSLRLSCAASGFTFSYYDIQWVRQAPGKGLEWVSSISPSGQSTYYRREVKGRFTISRDNSKNTLYLQMNSLRAEDTAVYYCARRTGREYGGGWYFDYWGQGTLVTVSS
VL2: B2 VL
Turning to B2, the “Bio Avail (Approved Dosing Info)” value in series [1] is recorded as 85%. The “Eff Dose” value in series [2] is reported as 89.3 mg.

B3: concizumab (antibody, chains of the INN, looked up, V domains shown)
VH: EVQLVESGGGLVKPGGSLRLSCAASGFTFSNYAMSWVRQTPEKRLEWVATISRSGSYSYFPDSVQGRFTISRDNAKNSLYLQMNSLRAEDTAVYYCARLGGYDEGDAMDSWGQGTTVTVSS
VL: DIVMTQTPLSLSVTPGQPASISCKSSQSLLESDGKTYLNWYLQKPGQSPQLLIYLVSILDSGVPDRFSGSGSGTDFTLKISRVEAEDVGVYYCLQATHFPQTFGGGTKVEIK
In the case of B3, in series [1], the “Bioavail. (Baseline dose)” value was 93.0%. Moreover, the “Eff. Dose” value in series [2] (baseline dose x bioavailability, SC (Table 17), assumed weight 70 kg) is listed as 16.3 mg.

B4: pegfilgrastim (protein, UniProt P09919 31-207, looked up)
Granulocyte …: TPLGPASSLPQSFLLKCLEQVRKIQGDGAALQEKLVSECATYKLCHPEELVLLGHSLGIPWAPLSSCPSQALQLAGCLSQLHSGLFLYQGLLQALEGISPELGPTLDTLQLDVADFATTIWQQMEELGMAPALQPTQGAMPAFASAFQRRAGGVLVASHLQSFLEVSYRVLRHLAQP
modifications: N-terminal Met; PEG
With B4, in series [1], the “Bio Avail (Approved Dosing Info)” value is 70%. In addition, in series [2], the “Eff Dose” value came to 4.2 mg.
